Values belong to the molecule of their own block, whether it stands above or below them. Residues, ends and D or L forms follow the SMILES beside them.
Key:
Ezrin = conditions: co-IP and PLA, NS-SV-AC cells; ref [31]; cited from earlier work
Description: (§1) Several mammalian AQP isoforms have been proposed to directly interact with Ezrin during trafficking.

[1] = molecular target: T1, human ezrin FERM-domain (residues 1–295) (Homo sapiens, UniProt P15311); test: Microscale thermophoresis (MST), binding to FERM-Alexa488; conditions: Z-test for population means; for Affinity for FERM, full-length AQP compared with its C-terminal tail: significant if p < 0.05
T1 construct: human ezrin FERM-domain (residues 1–295); 8xHis-tag (N); TEV cleavage site (N); made in house; host or cells: E. coli BL21*
T1 sequence (P15311 1-295): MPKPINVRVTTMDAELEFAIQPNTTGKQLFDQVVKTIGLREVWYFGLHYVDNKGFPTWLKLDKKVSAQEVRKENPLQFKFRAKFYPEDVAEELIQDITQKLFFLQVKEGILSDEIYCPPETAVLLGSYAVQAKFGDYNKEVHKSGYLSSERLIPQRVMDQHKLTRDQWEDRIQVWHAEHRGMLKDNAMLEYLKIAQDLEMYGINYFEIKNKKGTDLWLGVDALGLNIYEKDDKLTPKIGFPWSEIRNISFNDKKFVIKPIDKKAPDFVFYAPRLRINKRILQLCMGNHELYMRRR
Method: For each AQP, a 1:1 dilution series was made resulting in 12 samples with a concentration range of 0.0419–86.0 μM for AQP2 and 0.029–60.6 μM for AQP5. The samples were mixed with an equal volume of FERM that had been labelled with Alexa-488, transferred to MST capillaries, and MST traces were recorded (Figure S1). From these traces, the difference in normalized fluorescence before and after heating was used to generate a binding curve for each AQP from which the dissociation constant (Kd) could be determined (Figure 3a).
This artefact became even more prominent when the AQP concentration was increased further. As a result, AQP concentrations that would lead to saturation could not be used in the case of AQP5, wherefore the estimated Kd-value should be evaluated with caution.
Next, we set out to investigate if the interaction between FERM and AQP2/AQP5 is mediated by the AQP C-termini as previously proposed. For this purpose, we expressed the AQP2 and AQP5 C-terminal tails (residues 227–271 and 228–265 for AQP2 and AQP5 respectively) as GST-fusion constructs in E. coli. The purified GST-AQP constructs were then cleaved with thrombin, allowing AQP2 and AQP5 C-termini to be separated from the GST-tag. For each AQP C-terminal peptide, a 1:1 dilution series was made resulting in 12 samples for AQP2 (0.072–294.5 μM) and 16 samples (0.001–337.5 μM) for AQP5, mixed with fluorescently labelled FERM, and MST-traces were recorded and analyzed as described above (Figure S1). […] This confirms the C-terminus as the region responsible for the FERM-interaction for both AQP2 and AQP5.
The E. coli codon-optimized gene for the human ezrin FERM-domain (residues 1–295) was synthesized (Genscript, Piscataway, NJ, USA) and cloned into pET15b using the NdeI and BamHI sites. The final construct contained an N-terminal 8xHis-tag followed by a TEV cleavage site. The plasmid was transformed into calcium-competent E. coli cells BL21* by heat shock. 2x1L LB-media supplemented with 100 μg/mL ampicillin was inoculated with a 5 mL overnight culture. […]

[2] = molecular target: T2, human ezrin FERM-domain (residues 1-295), labelled with Alexa-488 (human, UniProt P15311 1-295, cysteine-reactive C5 maleimide-Alexa 488 on cysteines); test: MST; AQP (full-length or C-terminal peptide) in a 1:1 dilution series mixed with FERM-Alexa488 at 0.125 uM (0.129 uM for the AQP5 C-terminus); Monolith NT.115, room temperature, LED and MST power 80%; premium capillaries (full-length AQP) or standard capillaries (peptides); three dilution series; one-to-one binding model on monomeric AQP concentration; conditions: both partners purified
T2 construct: ezrin, human, FERM-domain, residues 1-295; the construct has an N-terminal 8xHis-tag followed by a TEV cleavage site; No TEV cleavage is described in the purification; codon-optimised synthetic gene in pET15b; also called FERM-Alexa488; source: E. coli BL21*, purified (His-trap)
T2 sequence (P15311 1-295): as above

LIP5 = conditions: compared with construct truncated immediately after the amphipathic helix; ref [36] Roche et al., 2017; cited from earlier work
Description: Moreover, introduction of pho ...

Ezrin FERM-domain = conditions: co-IP and pull-down; ref [30]; cited from earlier work
Description: as §1

Molecule: full-length AQP5: human aquaporin 5, untagged, recombinantly produced in Pichia pastoris
- Interaction of AQP5 with ezrin (Ezrin): identified an interaction
- Affinity for FERM, full-length AQP compared with its C-terminal tail [1]: significant difference between full-length AQP5 and the AQP5 C-terminal tail (p < 0.05)

B1: full-length human AQP2 (natural protein, UniProt P41181 1-271, looked up)
chain: MWELRSIAFSRAVFAEFLATLLFVFFGLGSALNWPQALPSVLQIAMAFGLGIGTLVQALGHISGAHINPAVTVACLVGCHVSVLRAAFYVAAQLLGAVAGAALLHEITPADIRGDLAVNALSNSTTAGQAVTVELFLTLQLVLCIFASTDERRGENPGTPALSIGFSVALGHLLGIHYTGCSMNPARSLAPAVVTGKFDDHWVFWIGPLVGAILGSLLYNYVLFPPAKSLSERLAVLKGLEPDTDWEEREVRRRQSVELHSPQSLPRGTKA
notes: aquaporin 2, human, full-length, with an uncleavable His-tag attached to the N-terminus; kept in detergent (0.2% NG); The Kd is fitted on the monomeric AQP concentration; also called Aquaporin 2; source: Pichia pastoris, purified (NG-solubilised membranes, HisTrap, SEC); not shown: His-tag, N-terminal, kept
- Kd [2]: 7.8 ± 3.8 µM

B2: full-length AQP2: human aquaporin 2, recombinantly produced in Pichia pastoris, His-tag at the N-terminus (protein)
chain: B1 chain
modifications: left off: His-tag, N-terminal, kept
notes: human aquaporin 2, recombinantly produced in Pichia pastoris, His-tag at the N-terminus
- Affinity for LIP5 (LIP5): higher affinity
- Interaction of AQP2 C-terminal tail with ezrin FERM-domain (Ezrin FERM-domain): direct interaction
- Affinity for FERM, full-length AQP compared with its C-terminal tail [1]: highly similar

The next lines start with the values.

- Affinity for FERM, AQP5 C-terminal peptide compared with AQP2 C-terminal peptide [1]: somewhat higher (p < 0.05)
Molecule: CC[C@H](C)[C@H](NC(=O)[C@H](C)NC(=O)[C@@H](NC(=O)[C@H](CCCNC(=N)N)NC(=O)[C@H](CCC(=O)O)NC(=O)[C@H](CO)NC(=O)[C@H](CC(C)C)NC(=O)[C@H](CO)NC(=O)[C@H](CC(C)C)NC(=O)[C@H](CO)NC(=O)[C@H](CC(N)=O)NC(=O)[C@H](CO)NC(=O)CN)C(C)C)C(=O)N[C@H](C(=O)N[C@@H](CCCCN)C(=O)NCC(=O)N[C@H](C(=O)N[C@@H](Cc1ccc(O)cc1)C(=O)N[C@@H](CCC(=O)O)C(=O)N1CCC[C@H]1C(=O)N[C@@H](CC(=O)O)C(=O)N[C@@H](CCC(=O)O)C(=O)N[C@@H](CC(=O)O)C(=O)N[C@@H](Cc1c[nH]c2ccccc12)C(=O)N[C@@H](CCC(=O)O)C(=O)N[C@@H](CCC(=O)O)C(=O)N[C@@H](CCC(N)=O)C(=O)N[C@@H](CCCNC(=N)N)C(=O)N[C@@H](CCC(=O)O)C(=O)N[C@@H](CCC(=O)O)C(=O)N[C@@H](CCCNC(=N)N)C(=O)N[C@@H](CCCCN)C(=O)N[C@@H](CCCCN)C(=O)N[C@H](C(=O)N[C@@H](CCSC)C(=O)N[C@@H](CCC(=O)O)C(=O)N[C@@H](CC(C)C)C(=O)N[C@H](C(=O)N[C@H](C(=O)N[C@@H](CCCNC(=N)N)C(=O)O)[C@@H](C)O)[C@@H](C)O)[C@@H](C)O)[C@@H](C)O)[C@@H](C)CC [AQP5 C-terminal peptide] (H-GSNSLSLSERVAIIKGTYEPDEDWEEQREERKKTMELTTR-OH; N-terminus and C-terminus assumed)

- Kd [2]: 8.7 ± 2.4 µM
B3: AQP2 C-terminal tail (residues 227-271) (peptide, UniProt P41181 227-271, looked up)
chain: AKSLSERLAVLKGLEPDTDWEEREVRRRQSVELHSPQSLPRGTKA
notes: aquaporin 2, human, C-terminal tail, residues 227-271; also called AQP2 C-terminal peptide; AQP2 C-terminus; source: E. coli BL21*, GST fusion purified (GSTrap), cleaved with thrombin, separated from GST

- Kd [2]: 2.9 ± 0.89 µM
B4: AQP5 C-terminal tail (residues 228-265) (peptide, UniProt P55064 228-265, looked up)
chain: NSLSLSERVAIIKGTYEPDEDWEEQREERKKTMELTTR
notes: aquaporin 5, human, C-terminal tail, residues 228-265; Cloned into pET41a (SpeI, AvrII) with a thrombin site (LVPRGS) between GST and the AQP5 C-terminus; also called AQP5 C-terminal peptide; AQP5 C-terminus; source: E. coli BL21*, GST fusion purified (GSTrap), cleaved with thrombin, separated from GST
